Legend:
PARP14^cat = assay: PARP14cat mono-ADP-ribosylation of substrate peptides, RP-HPLC/MS; type: biochemical; conditions: after PARP14^cat reaction condition optimization, NAD+, listed as MP^B
MP^A R5ADPr1 = assay: fluorescence polarisation
MP^A E9ADPr1 = assay: fluorescence polarisation
MP^A S7ADPr1 = assay: fluorescence polarisation
MP^(A (E9D)) D9ADPr1 = assay: fluorescence polarisation

| Substance | conversion to mono-ADP-ribosylated product (ADPr1) (PARP14^cat) | Kd (MP^A R5ADPr1) [nM] | Kd (MP^A E9ADPr1) [nM] | Kd (MP^A S7ADPr1) [nM] | Kd (MP^(A (E9D)) D9ADPr1) [nM] |
| --- | --- | --- | --- | --- | --- |
| GWTARKSAEVGAGK [MP^A] | no activity was detected |  |  |  |  |
| pan-ADP-ribose detection reagent (an Af1521 macrodomain-Fc region fusion) (Fc fusion) |  | 15.6 | 732 | 1170 | 1810 |
